pKd: −log10 of the molar value.
These sequences were tested against HLA-A*02:01 (assay: IEDB peptide-MHC binding, purified MHC/direct/fluorescence; filed as Kd, often an IC50 or EC50 that approximates it; ≥ and ≤ were set here for values at or beyond the usual limits of such assays). Conditions: source organism: Human immunodeficiency virus 1.

| Sequence | pKd |
| --- | --- |
| KSLFNTIATL | 8.30 |
| KSLFNTIATLY | 8.30 |
| KSLFNTIAVL | 8.30 |
| KSLFNTIAVLY | 8.30 |
| KSLFNTVATL | 8.30 |
| KSLFNTVATLY | 8.30 |
| KSLFNTVAVL | 8.30 |
| KSLYNTIATL | 8.30 |
| KSLYNTIATLY | 7.70 |
| KSLYNTIAVL | 8.30 |
| KSLYNTVATL | 8.00 |
| KSLYNTVATLY | 8.30 |
| KSLYNTVAVL | 8.30 |
| KSLYNTVAVLY | 8.30 |
| RSLFNTIATLY | 8.30 |
| RSLFNTIAVL | 8.30 |
| RSLFNTIAVLY | 8.30 |
| RSLFNTVATL | 8.30 |

| Sequence | pKd |
| --- | --- |
| RSLFNTVAVL | 8.00 |
| RSLFNTVAVLY | 8.30 |
| RSLYNTIATL | 8.00 |
| RSLYNTIATLY | 7.40 |
| RSLYNTIAVL | 8.30 |
| RSLYNTIAVLY | 8.30 |
| RSLYNTVATL | 8.00 |
| RSLYNTVATLY | 8.00 |
| RSLYNTVAVL | 8.30 |
| RSLYNTVAVLY | 8.00 |
| SLFNTIATLY | 8.30 |
| SLFNTIAVLY | 8.30 |
| SLFNTVATLY | 8.30 |
| SLFNTVAVLY | 8.30 |
| SLYNTIATLY | 8.30 |
| SLYNTIAVLY | 8.30 |
| SLYNTVAVLY | 8.30 |

— the Immune Epitope Database (IEDB)
